Tests used:
LSR = LSR activity (oleate-induced 125I-LDL binding, uptake, degradation) in PLC cells; type: cell-based, human; details: 10 ng/mL recombinant leptin
Procedure: FIGS. 5A, 5B, 5C, and 5D show the stimulatory effect of leptin on LSR activity in PLC and suppression of this effect by 81B antibody. For FIGS. 5A, 5B, and 5C, cultured PLC cells were incubated at 37° C. for 30 min with increasing concentrations of human recombinant leptin in Buffer A. After this, 0.5 mM oleate and 20 μg/mL ^125I-LDL were added, and cells were further incubated at 37° C. for 2 h. Cells were washed, and the amount of oleate-induced ^125I-LDL bound (5A), internalized (5B) and degraded (5C) were measured. […] After washing, the amount of ^125I-LDL binding was determined, and is shown here as the mean±SD of triplicate determinations.
FIGS. 8A and 8B show the effect of mouse or human leptin on LSR activity in primary cultures of rat hepatocytes or a human liver cell line (PLC). […] The cells were washed, and the amount of oleate-induced ^125I-LDL bound and degraded was measured as described previously (Bihain, B. E., and Yen, F. T. (1992). Free fatty acids activate a high-affinity saturable pathway for degradation of low density lipoproteins infibroblasts from a subject homozygous for familial hypercholesterolemia. Biochemistry 31, 4628-4636.
FIGS. 35A and 35B show graphs of LSR activity and mRNA expression measured in PLC cells preincubated 24 h with leptin. […] Cells were washed, and the amount of oleate-induced ^125I-LDL binding was measured as described previously. […]

ob/ob mice = experiment: Food intake of ob/ob mice under daily subcutaneous injections; type: in vivo, mouse; details: daily subcutaneous injections of 25 μg over a 12 day period
Procedure: A synthetic peptide with a sequence identical to that of mouse leptin between residues 117-138 was obtained and found to stimulate the oleate-induced binding of ^125I-LDL in primary cultures of rat hepatocytes (FIG. 11B, insert). Daily subcutaneous injections of 25 μg of this synthetic leptin peptide to ob/ob mice had no effect on the food intake over a 12 day period (7.6±0.4 g/day in ob/ob receiving saline and 6.7±0.3 g/day in ob/ob receiving peptide; n=4, NS). Daily injections of 25 μg of mouse leptin caused a reduction of food intake to 4.7±0.5 g/day (n=3; p<0.003 versus controls).

B1: mouse leptin: recombinant mouse leptin, laboratory-prepared or commercial (Sigma, Calbiochem) (protein, UniProt P41160 22-167, looked up)
Leptin: VPIQKVQDDTKTLIKTIVTRINDISHTQSVSAKQRVTGLDFIPGLHPILSLSKMDQTLAVYQQVLTSLPSQNVLQIANDLENLRDLLHLLAFSKSCSLPQTSGLQKPESLDGVLEASLYSTEVVALSRLQGSLQDILQQLDVSPEC
stimulation of LSR activity in human PLC cells (LSR): inactive | food intake (ob/ob mice): 4.7 ± 0.5 g/day
